From patent publication US9771395B2, “Enhanced influenza hemagglutinin binders” (UNIVERSITY OF WASHINGTON, priority 2014, dated 2017)

How the values were obtained:
[1] = mouse, in vivo
[2] = tested on: human (H1N1) and avian (H5N1) influenza viruses; assay: microbe, parasite or virus in culture; format: cell-based, Influenza virus
[3] = tested on: A/California/07/2009 (CA09) influenza virus; set-up: species or system ferrets; details: in vivo
CA09 virus [4] = tested on: CA09 virus; set-up: species or system BALB/c mice; details: mouse, in vivo
CA09 virus [5] = assay: Post-exposure (therapeutic) administration after CA09 challenge in BALB/c mice; format: in vivo; details: for protection from lethality: 10 MLD50 CA09
Method: All animal experiments used in this study were approved by the University of Washington Institutional Animal Care and Use Committee. […] […] In a therapeutic setting, mice received the protein binder 0 (2 hours post-infection), 1, 2, 3, or 4 days post infection. The mice were monitored daily for weight loss and survival until 14 days post-infection. Animals that lost more than 30% of their initial body weight were euthanized in accordance with our animal protocol. The SCID (NOD SCID gamma, strain NOD.Cg-Prkdcscid Il2rgtm1Wjl/SzJ) mice and the MyD88−/−(strain B6.129P2(SJL)-Myd88tm1.1Defr/J) mice were purchased from Jackson Laboratory.

CA09 virus [6] = assay: Lung immunohistochemistry for influenza nucleoprotein (NP) after CA09 challenge; format: in vivo, BALB/c mice
Method: During in vivo challenge experiments, lungs were removed from mice and immersed in 10% neutral buffered formalin. Following fixation, tissues were removed from formalin and placed in paraffin. Immunohistochemical staining was performed on the Leica Bond Automated Immunostainer. Sections were deparaffinized in Leica Bond Dewax Solution (Leica Cat No. AR922) and rehydrated through 100% EtOH. After antigen retrieval with EDTA buffer pH 9.0 (Lieca Bond Epitope Retrieval Solution 2, Cat No AR9640) at 100° C. for 20 minutes and blocking endogenous peroxidase activity with 3.0% H2O2 for 5 minutes and blocking with 10% Normal Donkey Serum in TBS for 20 minutes the sections were incubated with Goat anti Influenza A Virus, (Meridian Life Science Inc. Cat No. B65141G) at 1:2000 or Normal Goat IgG, isotype control. (Invitrogen Cat No. 02-6202) at (1:5000 dilution) both in Bond Primary Antibody Diluent (Leica Cat No. AR9352) for 30 minutes at room temperature. Sections were then incubated with Rabbit anti Goat IgG (Jackson ImmunoResearch Cat. No. 305-005-045) 1:1500+5% Normal Donkey Serum for 8 minutes at RT followed by incubation with Goat anti Rabbit Poly-HRP polymer secondary detection (Leica Cat No DS9800) for 8 minutes at room temperature. Sections were then incubated with Leica Bond Mixed Refine DAB substrate detection for 10 minutes at room temperature. (Leica Cat No DS9800). […]

CA09 virus [7] = assay: Pre-exposure administration and CA09 challenge in MyD88-/- mice; format: in vivo; details: 6.0 mg/kg IN 2 hrs before CA09
Method: (§1) All animal experiments used in this study were approved by the University of Washington Institutional Animal Care and Use Committee. […] Two to forty-eight hours later, the mice were anesthetized by isoflurane and challenged intranasally with 10 MLD50 (fifty percent mouse lethal dose) of either A/California/07/09 (H1N1) (CA09) or A/PR/8/34 (H1N1) (PR8). In a therapeutic setting, mice received the protein binder 0 (2 hours post-infection), 1, 2, 3, or 4 days post infection. The mice were monitored daily for weight loss and survival until 14 days post-infection. Animals that lost more than 30% of their initial body weight were euthanized in accordance with our animal protocol. The SCID (NOD SCID gamma, strain NOD.Cg-Prkdcscid Il2rgtm1Wjl/SzJ) mice and the MyD88−/−(strain B6.129P2(SJL)-Myd88tm1.1Defr/J) mice were purchased from Jackson Laboratory.

[8] = tested on: H1N1 A/California/07/2009 (CA09) virus; assay: Pre-exposure administration and lethal influenza challenge in BALB/c mice; format: in vivo
Method: as §1

H2 HA = format: binding, Influenza virus
[9] = tested on: Group I Hemagglutinin (HA) subtypes; format: binding, Influenza virus
CA09 virus [10] = assay: Bio-Plex inflammatory cytokines in lung homogenates after CA09 challenge; format: in vivo, BALB/c mice; details: 6.0 mg/kg IN 24 hrs before or after CA09; day 2 p.i.; P≦0.00119
Method: The concentrations of cytokines in lung tissue were measured. On days 2 and 4 post-infection, 8 mice per group were sacrificed and whole lung tissue was collected and immediately frozen. Lungs were thawed, weighed and lysed using the Bio-Plex® Cell Lysis Kit (Bio-Rad, Hercules, Calif.). The levels of interleukin (IL)-6, IL-10. IL-12(p70), interferon (IFN)-γ, and tumor necrosis factor (TNF)-α in the lysate were measured using a Bio-Plex) multiplex bead array kit (Bio-Rad, Hercules, Calif.). The Bio-Plex® assay was performed in accordance with the manufacturer's instructions.

H5 HA = format: binding, Influenza virus
CA09 virus [11] = assay: Pre-exposure administration and CA09 challenge in SCID mice; format: in vivo, NOD SCID gamma (SCID) mice; details: 6.0 mg/kg IN 2 hrs before CA09
Method: as §1

[12] = target: Hemagglutinin (HA) of pandemic 2009 California H1N1 (Influenza A virus, UniProt C3W5S1)
[13] = 0.01 mg/kg IN two hours prior to lethal CA09 challenge
[14] = 0.1 mg/kg IN two hours prior to lethal CA09 challenge
[15] = 1.0 mg/kg IN two hours prior to lethal CA09 challenge

B1: HB36.6: HA stem binding protein, variant of HB36.5 with nine substitutions (SEQ ID NO: 3); FLAG-tagged in the studies (protein)
chain: SNAMDGQQLNRLLLENIGAWDPFGLGKDAYTYQAAEVLKAVYETNRAFDLAMRIHWIYNFAFKRRIPFARTQKLARRLLELKQAASSPLP
modifications: FLAG tag; (1)..(5) optionally absent; (86)..(90) optionally absent
notes: FLAG-tagged in the studies
detection of protein in lung tissue [1]: readily detected throughout the lung tissue | 50% effective concentration (EC50) range [2]: 0.18 to 12.0 µg/mL | protection against influenza challenge in ferrets [3]: affords prophylactic protection | reduction in mean viral titers in nasal washes vs untreated controls (CA09 virus [4]): 1-3 log-fold | protection from lethality (CA09 virus [5]; 3.0 mg/kg IN daily for 4 days (days +1-4 p.i.)): 100% | protection from lethality (CA09 virus [5]; single IN dose 3.0 mg/kg 2 hours p.i.): 100% | protection from lethality (CA09 virus [5]; single IN dose 3.0 mg/kg +1 day p.i.): 60% | rate of survival (CA09 virus [5]; single IN dose 10 mg/kg on day +1 p.i., 3 MLD50 CA09): 70% | effect of a single dose on survivors (CA09 virus [5]; single IN dose 1.0-10 mg/kg on day +1 p.i., CA09, dose-responsive): increase in the number of survivors | viral replication in the lungs vs untreated controls (CA09 virus [6]; 6.0 mg/kg IN 1 day before or post-infection, day 2 and day 4 p.i.): significantly less viral replication | NP positive (infected) cells in lung tissue vs controls (CA09 virus [6]; 6.0 mg/kg IN as therapeutic, day 4, P≦0.0263): significantly lower number of infected cells | survival (protected mice) (CA09 virus [7]): 90% | weight loss (CA09 virus [7]): minimal weight loss | mice recovered and survived [8, 13]: 20% | survived longer than controls [8, 13]: 2 to 3 days | weight loss [8, 13]: exhibited weight loss | survival [8, 14]: 100% | weight loss [8, 14]: little | survival [8, 15]: 100% | weight loss [8, 15]: no | protection from mortality and morbidity ([8]; lethal CA09 challenge 24 hours after the 4th dose (3.0 mg/kg IN), data not shown): 100% | protection ([8]; same dose (6.0 mg/kg) delivered intravenously (IV), data not shown): no protection | survival ([8]; single IN dose 6.0 mg/kg at 2, 24 or 48 hours before 10 MLD50 CA09): 100% | weight loss ([8]; single IN dose 6.0 mg/kg up to 48 hours before 10 MLD50 CA09): moderate to low | affinity increase over HB36.5 (H2 HA): greater than 40 fold | affinity compared with HB36.5 [9]: higher affinity than HB36.5 | cross-reactivity against Group I HA subtypes [9]: broadly cross-reactive | off-rates (dissociation) [9]: did not show well-defined off-rates | inflammatory cytokine response in lung (IL-6, IL-10, IL-12p70, TNF-α, IFN-γ) (CA09 virus [10]): several cytokines were significantly lower than in the controls | affinity increase over HB36.5 (H5 HA): > 10 fold | survival (protected mice) (CA09 virus [11]): 100% | weight loss (CA09 virus [11]): minimal weight loss | Kd stronger than HB36.5 [12]: roughly 6 fold | Kd tighter than any known de novo binder [12]: 5 fold | Kd ([12]; read-out: Kd against pandemic 2009 California H1N1): 3.1 nM
